This note sets out measurements from patent publication WO2022154037A1 (dated 2022).

Test [1] addresses T1, mutant LRH1 (LRH1S510E; constitutive phosphorylated product) (human, UniProt O00482 1-541).
T1 construct: It is a nuclear protein, not on the cell surface; also called HEK293T:LRH1S510E
Kind of test: immunohistochemical staining of HEK293T cell block sections expressing LRH1S510E.

Test [2] concerns the target T2, antigen peptide in which Ser510 is not phosphorylated (non-phosphorylated LRH1 peptide) (human).
T2 construct: also called non-pS510-LRH1 peptide; peptide containing a non-phosphorylated product of serine at position 510
T2 peptide: RLPEIRAISMQAEE
Kind of test: ELISA, concentration series of peptide, purified antibody.

T1 sequence (O00482 whole entry S510E): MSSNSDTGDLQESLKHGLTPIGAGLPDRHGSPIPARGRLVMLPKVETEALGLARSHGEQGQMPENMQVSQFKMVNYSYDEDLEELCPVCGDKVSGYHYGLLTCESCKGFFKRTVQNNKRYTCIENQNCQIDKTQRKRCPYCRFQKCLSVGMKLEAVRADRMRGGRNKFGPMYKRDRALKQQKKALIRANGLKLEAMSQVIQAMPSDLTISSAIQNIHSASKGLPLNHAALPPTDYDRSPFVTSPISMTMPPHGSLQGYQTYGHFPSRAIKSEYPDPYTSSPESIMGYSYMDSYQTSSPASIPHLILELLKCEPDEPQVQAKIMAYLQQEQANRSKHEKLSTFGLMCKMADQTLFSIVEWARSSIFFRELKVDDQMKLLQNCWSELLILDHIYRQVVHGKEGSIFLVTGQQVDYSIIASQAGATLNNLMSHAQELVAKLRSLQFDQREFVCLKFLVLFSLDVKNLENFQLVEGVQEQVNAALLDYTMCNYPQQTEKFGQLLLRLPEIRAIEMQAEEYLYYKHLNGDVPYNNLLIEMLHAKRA

B1: anti-pSer510-LRH1 monoclonal antibody clone 55 (FMU-P2-C2) (antibody, V domains shown)
VH: EVKLVESGGGLVQPGGSLRLSCAASGFTFADFYMSWIRQSPGKAPEWLSFIRNKAKSYTTEYNPSVKGRFTISRDDTQNVLYLQMNTLRAEDTAIYYCAKHERGGAGDYWGQGVMVTVSL
VL: DIQMTQSPASLSASPEEIVTITCQASQDIGNWLTWYQQKPGKSPQLLIYSATSLADGIPSRFSGSRSGTQYSLKISRLQVEDTGIYYCLQRYSNPLTFGSGTKLEIK
notes: Rat monoclonal antibody from a hybridoma (Wistar rat iliac lymph node cells fused with mouse myeloma SP2), detected with anti-rat IgG secondary antibodies; also called rat anti-pSer510-LRH1 monoclonal antibody clone 55; purified anti-pSer510-LRH1 monoclonal antibody
On to B1, for which the figures for the binding result in test [1] and in test [2] were “binds” and “no binding”, respectively.
